Assay results reported in patent US20120282285.

B1: MBL-Associated Serine Protease-1 (MASP-1) (protein)
chain: HTVELNNMFGQIQSPGYPDSYPSDSEVTWNITVPDGFRIKLYFMHFNLESSYLCEYDYVKVETEDQVLATFCGRETTDTEQTPGQEVVLSPGSFMSITFRSDFSNEERFTGFDAHYMAVDVDECKEREDEELSCDHYCHNYIGGYYCSCRFGYILHTDNRTCRVECSDNLFTQRTGVITSPDFPNPYPKSSECLYTIELEEGFMVNLQFEDIFDIEDHPEVPCPYDYIKIKVGPKVLGPFCGEKAPEPISTQSHSVLILFHSDNSGENRGWRLSYRAAGNECPELQPPVHGKIEPSQAKYFFKDQVLVSCDTGYKVLKDNVEMDTFQIECLKDGTWSNKIPTCKIVDCRAPGELEHGLITFSTRNNLTTYKSEIKYSCQEPYYKMLNNNTGIYTCSAQGVWMNKVLGRSLPTCLPVCGLPKFSRKLMARIFNGRPAQKGTTPWIAMLSHLNGQPFCGGSLLGSSWIVTAAHCLHQSLDPEDPTLRDSDLLSPSDFKIILGKHWRLRSDENEQHLGVKHTTLHPQYDPNTFENDVALVELLESPVLNAFVMPICLPEGPQQEGAMVIVSGWGKQFLQRFPETLMEIEIPIVDHSTCQKAYAPLKKKVTRDMICAGEKEGGKDACAGDSGGPMVTLNRERGQWYLVGTVSWGDDCGKKDRYGVYSYIHHNKDWIQRVTGVRN
B2: MBL-Associated Serine Protease-2 (MASP-2) (protein)
chain: TPLGPKWPEPVFGRLASPGFPGEYANDQERRWTLTAPPGYRLRLYFTHFDLELSHLCEYDFVKLSSGAKVLATLCGQESTDTERAPGKDTFYSLGSSLDITFRSDYSNEKPFTGFEAFYAAEDIDECQVAPGEAPTCDHHCHNHLGGFYCSCRAGYVLHRNKRTCSALCSGQVFTQRSGELSSPEYPRPYPKLSSCTYSISLEEGFSVILDFVESFDVETHPETLCPYDFLKIQTDREEHGPFCGKTLPHRIETKSNTVTITFVTDESGDHTGWKIHYTSTAQPCPYPMAPPNGHVSPVQAKYILKDSFSIFCETGYELLQGHLPLKSFTAVCQKDGSWDRPMPACSIVDCGPPDDLPSGRVEYITGPGVTTYKAVIQYSCEETFYTMKVNDGKYVCEADGFWTSSKGEKSLPVCEPVCGLSARTTGGRIYGGQKAKPGDFPWQVLILGGTTAAGALLYDNWVLTAAHAVYEQKHDASALDIRMGTLKRLSPHYTQAWSEAVFIHEGYTHDAGFDNDIALIKLNNKVVINSNITPICLPRKEAESFMRTDDIGTASGWGLTQRGFLARNLMYVDIPIVDHQKCTAAYEKPPYPRGSVTANMLCAGLESGGKDSCRGDSGGALVFLDSETERWFVGGIVSWGSMNCGEAGQYGVYTKVINYIPWIENIISDF

Assays:
[1] = biological target: mannose-binding lectin (MBL), P11226
Chain of mannose-binding lectin (MBL), P11226 (P11226 21-248): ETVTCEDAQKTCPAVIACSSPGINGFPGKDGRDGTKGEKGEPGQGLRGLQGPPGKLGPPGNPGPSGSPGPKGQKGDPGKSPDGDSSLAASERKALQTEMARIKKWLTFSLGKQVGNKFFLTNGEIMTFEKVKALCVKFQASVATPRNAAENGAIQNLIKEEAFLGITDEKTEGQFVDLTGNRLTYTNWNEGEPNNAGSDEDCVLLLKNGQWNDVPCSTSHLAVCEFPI

Chain of Ficolin-3, O75636 (O75636 24-299): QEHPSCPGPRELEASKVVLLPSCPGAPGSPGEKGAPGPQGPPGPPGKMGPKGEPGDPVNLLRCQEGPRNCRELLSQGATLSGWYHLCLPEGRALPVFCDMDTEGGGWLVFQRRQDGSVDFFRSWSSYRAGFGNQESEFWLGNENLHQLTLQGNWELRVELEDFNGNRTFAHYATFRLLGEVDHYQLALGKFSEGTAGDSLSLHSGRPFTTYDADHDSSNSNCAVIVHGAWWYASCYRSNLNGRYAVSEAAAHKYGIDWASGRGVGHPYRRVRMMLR

| Protein | complement activation (C3 and C4) [1] | C4 deposition (OD490-650nm), mannan/rMBL with MBL deficient serum [1] | C4 deposition (OD490-650nm), AcBSA/rFicolin-3 with Ficolin-3 deficient serum (Ficolin-3, O75636) |
| --- | --- | --- | --- |
| B1 | MASP-1 were able to activate both the C3 and C4 complement proteins |  |  |
| B2 | MASP-2 were able to strongly activate both the C3 and C4 complement proteins | Application of rMASP-2 resulted in a strong positive dose dependent enhancement of the C4 deposition via both the Ficolin-3 and MBL activation pathways (FIGS. 25B and 25E) | Application of rMASP-2 resulted in a strong positive dose dependent enhancement of the C4 deposition via both the Ficolin-3 and MBL activation pathways (FIGS. 25B and 25E) |
